Laboratory results from article PMC9083827.
Values joined by “and” are separate entries in the source; they are usually repeats but may differ in a detail not shown here. Equal values may be shown once.

Target: TraB_(31-110) (plasmid pIP501 (originally isolated from Streptococcus agalactiae, mainly found in Enterococci))
Experiment: cross-linking; 10 µg TraB_(31-110) in 50 µl with 0/0.001/0.01/0.05/0.1% glutaraldehyde in 50 mM Bicine, 150 mM NaCl, 1 mM DTT, 20 min at room temperature; Tween-20 micelles; SDS-PAGE

## TraB_(31-110) (domain or fragment)
  stoichiometry N: 2 and 4
